According to patent publication US5834273A, “Heat-stable and water soluble modified enzymes” (Wako Pure Chemical Industries, Ltd., priority 1991, dated 1998):

Target: T1, XOD (Bos taurus, UniProt P80457)
T1 construct: purchased Boehringer Mannheim GmbH
Test: Thermal stability of XOD
Format: physicochemical, cow
Details: 75 min, pH 7.0, 0.2 U/ml
Method: Measuring Method of XOD Activity
The method described in Method of Enzymatic Analysis, vol. 3, pages 212, 1983.
To 2 ml of aqueous solution containing 5 mg of pyromellitic acid-modified dextran obtained in Example 1(1), 65 mg of WSC was added. To the resulting solution maintained at pH 6.0 using a pH-stat, 0.5 ml of 10 mM phosphate buffer solution (pH 7.0) containing 10 mg of XOD (mfd. by Boehringer Mannheim GmbH., derived from cow milk) was added and reacted at 50° C. for 24 hours.
The thus obtained modified XOD and the intact XOD were dissolved in 20 mM phosphate buffer solution (pH 7.0) in an amount of 0.2 U/ml, respectively,and stored at a predetermined temperature for 75 min. to measure the change of residual activity.

T1 sequence (P80457 whole entry): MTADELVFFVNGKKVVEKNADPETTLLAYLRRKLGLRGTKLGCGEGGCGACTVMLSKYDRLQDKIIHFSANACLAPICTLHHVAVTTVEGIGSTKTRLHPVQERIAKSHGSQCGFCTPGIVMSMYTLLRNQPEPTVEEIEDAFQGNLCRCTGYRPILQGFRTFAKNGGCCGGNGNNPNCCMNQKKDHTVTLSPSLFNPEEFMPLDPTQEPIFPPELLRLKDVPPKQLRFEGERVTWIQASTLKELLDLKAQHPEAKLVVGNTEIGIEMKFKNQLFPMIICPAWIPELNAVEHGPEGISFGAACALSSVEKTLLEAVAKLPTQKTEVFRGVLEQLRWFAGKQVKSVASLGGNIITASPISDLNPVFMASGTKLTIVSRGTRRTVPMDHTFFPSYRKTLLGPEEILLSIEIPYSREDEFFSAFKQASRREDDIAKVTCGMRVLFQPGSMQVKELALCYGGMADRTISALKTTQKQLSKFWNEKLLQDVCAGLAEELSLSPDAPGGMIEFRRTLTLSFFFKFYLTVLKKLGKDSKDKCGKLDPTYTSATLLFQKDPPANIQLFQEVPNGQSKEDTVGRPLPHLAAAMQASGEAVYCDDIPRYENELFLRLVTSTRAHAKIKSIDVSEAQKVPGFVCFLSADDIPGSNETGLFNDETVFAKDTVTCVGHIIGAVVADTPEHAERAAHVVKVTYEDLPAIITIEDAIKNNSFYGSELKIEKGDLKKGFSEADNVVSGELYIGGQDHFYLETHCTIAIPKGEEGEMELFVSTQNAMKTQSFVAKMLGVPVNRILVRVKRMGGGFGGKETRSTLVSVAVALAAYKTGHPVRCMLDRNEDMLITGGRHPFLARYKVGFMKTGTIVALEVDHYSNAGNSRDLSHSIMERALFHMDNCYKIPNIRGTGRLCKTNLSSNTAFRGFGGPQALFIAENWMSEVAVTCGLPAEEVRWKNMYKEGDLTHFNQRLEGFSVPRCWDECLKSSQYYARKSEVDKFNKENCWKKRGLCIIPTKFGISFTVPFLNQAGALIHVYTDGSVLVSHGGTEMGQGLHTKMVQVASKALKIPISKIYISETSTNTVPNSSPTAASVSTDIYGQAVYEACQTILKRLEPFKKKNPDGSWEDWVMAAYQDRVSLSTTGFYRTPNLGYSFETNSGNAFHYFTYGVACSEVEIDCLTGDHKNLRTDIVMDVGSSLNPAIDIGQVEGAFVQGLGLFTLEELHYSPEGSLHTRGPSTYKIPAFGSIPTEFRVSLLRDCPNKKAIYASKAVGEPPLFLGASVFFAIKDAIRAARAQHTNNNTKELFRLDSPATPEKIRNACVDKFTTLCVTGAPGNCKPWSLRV

Intact XOD: xanthine oxidase (E.C.1.2.3.2), mfd. by Boehringer Mannheim GmbH., derived from cow milk
Residual activity (56 °C): 40.5%
Residual activity (58 °C): 31.2%
Residual activity (60 °C): 23.4%
